Our source for the protein production values is a protein production outcome set (Wang et al. 2014).

A short description of this data set: label from the status in PepcDB records.

For “MSGGRAQKPRPAPLRLAKPRPSSVGPAPRGSPGARRPAMSARHAPLLAGRVRSRAPRRFPDRGGGRRRQSSPVRAMSSPAVARASPGGNREASGGPRSRNGPWEVGGGGERLERAGAESGRWELLLRRGELLALGGHLKGALEAFAAALRRGAPARPERLGSLVDCLVFSYRLRHGLRWSAAPAAGAAGLLSCLSCRGFLSEPVTVPCGHSYCRRCLRRELRARCRLCRDRLPPAAAASEGTPRPPPLAAAIADFRTSVVLNHLAEKWFPGQRERARAAGRLGELLHEGRYREALAAACDALRAEPSDLTLKIYRAESYAGLQEFKAALEDLNAVLFQLPNWPEVYFRKGKVLQDAGFLGDALQLFLQCLALDEDFAPAKLQVEKILCDLLSPENVREGLKESSWSSLPCIKSKPLGFPSVMEQPHSPAELGLKQPEERVEDAPEPVKGSLSRAQSAQAISAAAVPAREDGLKRVCSEPLLSAQGKGVLLKRKLSLLEQDVLINEDGRSKLKKQSESPSEDCMFSIAYGDIPEELIDVSDFECSLCMRLFFEPVTTPCGHSFCKNCLERCLDHAPYCPLCKESLKEYLADRRYCVTQLLEELIVKYLPDELSERKKIYDEETAELSHLTKNVPIFVCTMAYPTVPCPLHVFEPRYRLMIRRSIQTGTKQFGMCVSDTQNSFADYGCMLQIRNVHFLPDGRSVVDTVGGKRFRVLKRGMKDGYCTADIEYLEDVKIENGDEIRSLRELHDSVYSQACSWFQNLRDRFRSQILQHFGSMPEREENLQATPNGPAWCWWLLAVLPVDPRYQLSVLSMKSLEERLTKIQHILTYFSRDQSK”, the protein production entry is reported as “failed”.

With “MSGIEAKNLWHRLNNLALVRFLLLVAAGWAIVQLLAYFETVIIIFTFAAILAFLLSYPVQWLRRFLPHSVAVVVVFLISIVILGGLLITVGVALLSQGQQLIDSISAFLTSLLPFLERIERLLSNRNLQIDLSVIQEQLRTQAVSTLVTSLAIVQQFLTNFVTFILIAVVAFFMLLDGEKLWNFILKIVPQKRRIRFTNIMRRSFLGFFRGQLLLCLFLTSSTFIIFLLLQVPFALILSVIVGILDIIPGIGATLGVGTITLIVLSQDVWLALKVLAACVVLQQIQDNLISPRIMQGSLNLNPVVVFFALLVGARVAGLLGVFISIPITGVIVSLFEIDEMKSEV”, the protein production result was “failed”.

On to “MSGILALGAYVPERVMTNADFEAYLDTSDEWIVTRTGIKERRVAAEDEYTSDLAFKAVEDLLRRHPGALEGVDAVIVATNTPDALFPDTAALVQARFGLKAFAYDLLAGCPGWIYALAQAHALVEAGLAQKVLAVGAEALSKIIDWNDRATAVLFGDGGGAAVVGKVREGYGFRSFVLGADGTGAKELYHACVAPRLPDGTSMKNRLYMNGREVFKFAVRVMNTATLEAIEKAGLTPEDIRLFVPHQANLRIIDAARERLGLPWERVAVNVDRYGNTSTASIPLALKEALDAGRIREGDHVLLVSFGAGLTWAAAVLTWGGA”, for which the protein production entry is given as “not failed”. In the case of “MSGLDPARSILQGSAEGPVIATGEALSFWGGVDPATGCVIDVHHPLHGVPLTGSILMMPSSRGSCTGSGVLLDLVLTGRGPAALVFSEPEDVLTLGALIASEMFGKPLPVL” it was “failed”; in that of “MSGMRVYLGADHAGYELKQRIIEHLKQTGHEPIDCGALRYDADDDYPAFCIAAATRTVADPGSLGIVLGGSGNGEQIAANKVPGARCALAWSVQTAALAREHNNAQLIGIGGRMHTVAEALAIVDAFVTTPWSKAQRHQRRIDILAEYERTHEAPPVPGAPA”, “not failed”; in that of “MSGMVDLKEFLAELGKTQKELKNVIEQAKDIGLELKTNSKMTPEQAGKLYKYIVDGIKEQIQANQPAKNPEQDNKDDLNTAVASKSLNKKVSKTPKKEETKSQPKPKKTKEKKKEAPTPIAKKKGGIEIVNTFENQTPPTENTPKVVSHSQIEKAKQKLQEIQKSREALNKLTQSNANNASNANNAKKEISEVKKQEQEIKRHENIKRRTGFRVIKRNDEVENESENSVTESKKPTQSAAAIFEDIKKEWQEKDKQEAKKAKKPSKPKATPTAKNNKSHKIDFSDARDFKGNDIYDDETDEILLFDLHEQDNFNKEEEEKEIRQNINDRVRVQRKNPWMNESGIKRQSKKKRAFRNDNSQKVIQSTTAIPEEVRVYEFAQKANLNLADVIKTLFNLGLMVTKNDFLDKDSIEILAEEFHLEISVQNTLEEFEVEEVLEGVKKERPPVVTIMGHVDHGKTSLLDKIRDKRVAHTEAGGITQHIGAYMVEKNDKWVSFIDTPGHEAFSQMRNRGAQVTDIAVIVIAADDGVKQQTIEALEHAKAANVPVIFAMNKMDKPNVNPDKLKAECAELGYNPVDWGGEHEFIPVSAKTGDGIDNLLETILIQAGIMELKAIEEGSARAVVLEGSVEKGRGAVATVIVQSGTLSVGDSFFAETAFGKVRTMTDDQGKSIQNLKPSMVALITGLSEVPPAGSVLIGVENDSIARLQAQKRATYLRQKALSKSTKVSFDELSEMVANKELKNIPVVIKADTQGSLEAIKNSLLELNNEEVAIQVIHSGVGGITENDLSLVSSSEHAVILGFNIRPTGNVKNKAKEYNVSIKTYTVIYALIEEMRSLLLGLMSPIIEEEHTGQAEVRETFNIPKVGTIAGCVVSDGVIARGIKARLIRDGVVIHTGEILSLKRFKDDVKEVSKGYECGIMLDNYNEIKVGDVFETYKEIHKKRTL”, “failed”. As for “MSGPTWLPPKQPEPSRVPQGRALPRGTLGPPTAHGATLQPHPRVNFCPLPPEQCYQPPGVPEDRGPTWVGSHGAAQRLQGLPPDRGVIHPGSLDAEIDSLTSMLADLDGSRSHAPRRPDRQAFEAPPPHAYRGGSLKPSGGAVPAPMLPASPYGGPTPASYATASTPAGPAFPVQVKVAQPVRGCGLPRRGASQASGPLPGPHFPLTGRGEVWGAGYRSHREPGPGVKEGAAGVHNPAGGGRRGGHEPQGPLSQPPEEELERLTKKLVHDMNHPPSGEYFGRCGGCGDDVVGDGAGVVALDRVFHTGCFVCSTCRAQLRGQHFYAVERRAYCESCYVATLEKCSTCSEPILDRILRAMGKAYHPGCFTCVVCHRGLDGIPFTVDATSQIHCIEDFHRKFAPRCSVCGGAIMPEPGQEETVRIVALDRSFHIGCYKCEECGLLLSSEGECQGCYPLDGHILCKACSAWRIQELSATVTTDC”, the protein production result is “failed”. With “MSGQHGHDHSHAVVTQGNAKKLTIALSLTVTFLIVEVVAGFITQSLALLSDAAHMFTDAAALAIALAAIQVAKRPADDKRTFGYQRFEILAALFNASMLFMVAIYILYEAYQRFTHPPEIQSLGMLLVAVIGLIINLISMKILVSSAQDSLNVKGAYLEVLSDALGSVGVILGALVIYFTQWYWVDTLVAVLIGFWVLPRTWILLKQSINILLEGVPEEVDIEKLRDDLLALEGVESIHQLKVWAITSKNVHLTVHLFAPQADRNRLYRTAYEMLSHEHGIAEITLQIEEDECLAHSHTHIEKNHQH”, the protein production entry was “failed”. In the case of “MSGREFLQKLLDGERVEWKALGEIIQLEKGRQLNKDLLSSSGRYPAYNGGMSYSGFTDSYNYSENKTIISQGGASAGFVNFVTTKFYANAHCYVVLPDTEVVDNRYIYHFLKLNEERLTSCQHGAGIPALRASEITSLKIPIPCPDNPKKSLAIQAEIVRILDAFTELTAELTAELTARKKQYAYYRDRLLTFTTPPYGHPSKGGELFSLFGHPSEGGELFTPYGHSVEERELNSPSLKGWQAQPDGVVPVEWKTLGEVGHFIRGSGIQKSDFKASGVGCIHYGQIHTHYGTWTTETKSFIDPEFANRLKKAKPGDLVIATTSEDDDAVAKAVAWIGTEDVAVSTDAYIFRHTANPKYMSYFFQTDMFQEQKKPYITGTKVRRISGDNLAKILIPIPPLAEQERIVAILDQFDALTNSLTEGLPREIELRQKQYAYYRDLLFSFPKASFGGVPEGRDQFPSFGGVPEGRGGLNALEHHHHHH” it was “failed”; in that of “MSGSAADPPSPDRLAGVFSVSSVRRTDGTVQYLGNPLVPPDAVAEQLRPVFRQRGYDVRLEELGPESATGTTVTSNGETTVVDDPGANDSIAPGGAVNTRPGQYALVAEPVGTDTGGVPWLNIGLLLATIASTLYVGASAWYYIPVAKNPLRVFEAWPFMVAMLGVLGIHELGHYAAARYHGVDVTLPYFIPFPSYLGTMGAVINIRGRIPDRTALFDIGVAGPLAGLVATTIVTVIGLSIDPITVPERVANSDTGVIITFNYPLLFQALEALVNALGLGTEVGPGESVHPIVFAGWAGMFFTFLNLLPVGQLDGGHIVRSIVGRRQETIAAAVPGALFALAGYLYFTRDPPPVGFGVWGLWVFWGLFATGLAYAGPARPTVDTALDRRRALLGLFTFLLGIACFTPVPFEISAV”, “failed”. In the case of “MSGSPGIESVPGPELPKIEFLDRFNAKNQKFYAENDARFKDSPLLKKLLENSKLNKEKNEREIQDKYCLRGAEWGVGDCSTTGMTDEEKEKFITMLKKKTGVE”, the protein production result is “failed”. In the case of “MSGVKIAFIRHHDLWIKVDGKEKQLTKGEYITGPKWSYDGEWLAYVKGEKQNTLELYRLKDGKKVTPFHSEVSNYQWSPTENIIAFIFTGTLHTFKVEKKNADFENVSAGVGDYAWYPNGKKFLVSSEAHLLPTGWTGAQLYEVQKDAHMNPHKMKHLYALPNEHDDFLALVASGFQWSPDQKWISFLAVPTASWSADSNTLCLVRADGSRFEKVDQMLLNTQWFKWAPANNILAYIEGSGRVALENKHLKVKELPALQQNTFTPKGYVDWDFTWKNDNVIIVSRAKEAGIETPPEKRPLPSLYEIDSTSDEQHRITKPPHRQGDYHPLFMNKSNQLIWIRSDRKKADVWLAHKDGKHEMKWIENIDVPLEHHHHHH” it was “failed”; in that of “MSHLYDPTTQYYTGEYPKQKQPAPGVQAKMTPVPDCGEKSYVGSGRLKDRKALVTGGDSGIGRAAAIAYAREGADVAINYLPAEEEDAQQVKALIEECGRKAVLLPGDLSDESFARSLVHKAREALGGLDILALVAGKQTAIPEIKDLTSEQFQQTFAVNVFALFWITQEAIPLLPKGASIITTSSIQAYQPSPHLLDYAATKAAILNYSRGLAKQVAEKGIRVNIVAPGPIWTALQISGGQTQDKIPQFGQQTPMKRAGQPAELAPVYVYLASQESSYVTAEVHGVCGGEHLG”, “not failed”.

Regarding “MSHSIEQLSINTIRTLSIDAIEKANSGHPGMPMGAAPMAYTLWTQFMKHNPNNPTWFNRDRFVLSAGHGSMLLYSLLHLSGYDVTMDDLKNFRQWGSKTPGHPEYGHTAGVDATTGPLGQGIATAVGMAMAERHLAAKYNRDAYNIVDHYTYAICGDGDLMEGVSAEASSLAAHLQLGRLVVLYDSNDISLDGDLNRSFSESVEDRYKAYGWQVIRVEDGNDIEAIAKAIEEAKADEKRPTLIEVRTTIGFGSPNKSGKSASHGSPLGVEETKLTKEAYAWTAEQDFHVAEEVYENFRKTVQDVGETAQAEWNTMLGEYAQAYPELANELQAAMNGLLPEGWEQNLPTYELGSKAATRNSSGAVINAIAESVPSFFGGSADLAGSNKTYMNNEKDFTRDDYSGKNIWYGVREFAMGAAMNGIALHGGLKTYGGTFFVFSDYLRPAIRLAALMQLPVTYVFTHDSIAVGEDGPTHEPIEQLAALRAMPNVSVIRPADGNESVAAWRLALESTNKPTALVLTRQDLPTLEGAKDDTYEKVAKGAYVVSASKKETADVILLATGSEVSLAVEAQKALAVDGVDASVVSMPSMDRFEAQTAEYKESVLPKAVTKRFAIEMGATFGWHRYVGLEGDVLGIDTFGASAPGEKIMEEYGFTVENVVRKVKEML”, the protein production entry is “not failed”. “MSHSLKDFLEACETLGTLRLIVTSSAAVLEARGKIEKLFYAELAKGKYANMHTEGFEFHLNMEKITQVKFETGEAKRGNFTTYAIRFLDEKQESALSLFLQWGKPGEYEPGQVEAWHTLKEKYGEVWEPLPVQL”: the protein production entry is “not failed”. For the sequence “MSHTKPSIAILGAGRVGSSLARSAVAAGYEVKVAGSGAVDKIALTAEILMPGAVPSTADQAVKDADIVFLAVPLHKFRSVNPATLEGKIVIDTMNHWVPVNGELEEIDQDPRSTSEIIAEFFAGSTMVKSFNHIGYHEIEQDAGTGRAIAYATDDVDAGAQVAQLIKSFGFVPLNIGALENGRILEPGQEAFGAHLNKDSRLELVNQR”, the protein production entry was “failed”.
